# Experimental data reported in the DeepSol protein solubility set.
# Test: soluble on expression in E. coli; label from the status in PepcDB or PDB records
row,Sequence,soluble on expression in E. coli
1,VVQPADIDVPETPARPVLVVDFGAQYAQLIARRVREARVFSEVIPHTASIEEIRARQPVALVLSGGPASVYADGAPKLDPALLDLGVPVLGICYGFQAMAQALGGIVAHTGTREYGRTELKVLGGKLHSDLPEVQPVWMSHGDAVTAAPDGFDVVASSAGAPVAAFEAFDRRLAGVQYHPEVMHTPHGQQVLSRFLHDFAGLGAQWTPANIANALIEQVRTQIGDGHAICGLSGGVDSAVAAALVQRAIGDRLTCVFVDHGLLRAGERAQVQRDFVAATGANLVTVDAAETFLEALSGVSAPEGKRKIIGRQFIRAFEGAVRDVLDGKTAEFLVQGTLYPDVVESGGGSGTANIKSHHNVGGLPDDLKFTLVEPLRLLFKDEVRAVGRELGLPEEIVARQPFPGPGLGIRIVGEVTAKRLDTLRHADSIVREELTAAGLDNQIWQCPVVLLADVRSVGVQGDGRTYGHPIVLRPVSSEDAMTADWTRVPYEVLERISTRITNEVAEVNRVVLDITSKPPATIEWE,not soluble
2,MSAKHPVIAVTGSSGAGTTTTSLAFRKIFAQLNLHAAEVEGDSFHRYTRPEMDMAIRKARDAGRHISYFGPEANDFSLLEHTFIEYGQTGKGQSRKYLHTYDEAVPWNQVPGTFTPWQPLPEPTDVLFYEGLHGGVVTPQHDVARHVDLLVGVVPIVNLEWIQKLIRDTSERGHSREAVMDSVVRSMDDYINYITPQFSRTHINFQRVPTVDTSNPFAAKGIPSLDESFVVIHFRNLEGIDFPWLLAMLQGSFISHINTLVVPGGKMGLAMELIMLPLVQRLMEGKKIE,not soluble
3,MSLAIEKELLDQLLAGRDPSEVFGKDGLLDDLKKALSERILNAELDDHLDVERLEGGPANRRNGSSKKTVLTGTSKMTLTIPRDRAGTFDPKLIARYQRRFPDFDDKIISMYARGMTVREIQGHLEELYGIDVSPDLISAVTDTVLEAVGEWQNRPLELCYPLVFFDAIRVKIRDEGFVRNKAVYVALAVLADGSKEILGLWIEQTEGAKFWLRVMNELKNRGCQDILIAVVDGLKGFPEAITAVFPQTIVQTCIVHLIRHSLEFVSYKDRRTVVPALRAIYRARDAEAGLKALEAFEEGYWGQKYPAIAQSWRRNWEHVVPFFAFPEGVRRIIYTTNAIEALNSKLRRAVRSRGHFPGDEAAMKLLYLVLNNAAEQWKRAPREWVEAKTQFAVIFGERFFNEGHHHHHH,soluble
4,MSLKYNDNFQTILRHGVEKQVALLDADIFMENGQDDVELQMRQFRNLVNSKVDAIVVAMVNGKSAAEMMRLANEAKVPLVFVNRNPEPAKWPALTAFVGSDELESGTLQMEELARRAGYKGNVVILVGDPSNKSSVMRTEDVEKVVAKYPNMKVVQKKIGNWERSQAATIVIDWVKQGVDFSIVAANNDEMAIGAIMGLEKAGKNARDYLVGGIDGTPDGLKLMAEGKMAVSVFQDAVGQANGAVDAALSMARGETLASPVIWVPFKLITPENRQQFEEGHHHHHH,soluble
5,GSHMENYHAGPGISKSQLDDIADTPALYLWRKNAPVDTTKTKTLDLGTAFHCRVLELEEFSNRFIVAPEFNRRTNAGKEEEKAFLMECASTGKTVITAEEGRKIELMYQSVMALPLGQWLVESAGHAESSIYWEDPETGILCRCRPDKIIPEFHWIMDVKTTADIQRFKTAYYDYRYHVQDAFYSDGYEAQFGVQPTFVFLVASTTIECGRYPVEIFMMGEEAKLAGQQEYHRNLRTLSDCLNTDEWPAIKTLSLPRWAKEYAND,soluble
6,SSTFEDADTEETVTCLQMTIYHPGQQSGIFKSIRFCSKEKFPSIEVVKFGRNSNMCQYTFQDKQVSRIQFVLQPFKQFNSSVLSFEIKNMSKKTSLMVDNQELGYLNKMDLPYKCMLRFGEYQFLLQKEDGESVESFETQFIMSSRPLLQENNWPTQNPIPEDGMYSSYFTHRSSPSEMDENEL,soluble
7,MGSDKIHHHHHHMKLTIAGDSHGKYMVAILEGLPSGIRVDEELIRRDLFRRRNCYGRGKRMKMEEDAFEIVSGLWKGITTGAPVTILIPNRAGNPVKDVRSVPRPGHIDYAAWVKYKLPDLNIYVERSSARWTVALTAAGSLLKSLLKEFGIEVLGFVTRLGNVEARDIPGDFEELKRRRDESVVFCPDPEATKEMVAEIDRAKEEGNTLGGKVKVIARGVPAGIGSYSDLFKKLDSKIGSLFFAIPAVKGVVIGSEEMWYGFDYLDEFELEDGKIKRKTNNLGGIEGGITNGEDVWVNVSVKPIPTTGKPLKSVDLRTMEPAKTPYVRSDVTAVPPASVVCEAALAVVISDALLEHLGDGNIDDLKRRFENENLPRWNDGFWKEHYR,not soluble
8,MGSDKIHHHHHHMNNIIATGFNTASTDGELDSLERELRRLEAIGVDTVELALSSLDLIAGGRIVKERGDRLRTLLETFSFRYTVHGLVSSNFMDPATRRHQVDAAKALVEICDSIDARVLVQHAGFLRADQIAQRAGADERQCEALLELGEHAKAYGIRIAFENIFTTEPGQYRQTPAEVAATVKAVNHPDVVALIDFSHAYLESNYRGLDFRDQLRAMAPVLGAPGRRLSRRTATTRIVVITDGGMECSTGWTS,not soluble
9,MAVSQGVSLKEDLKDLVRKAEEIGRELSGKLKTNQLRKFHGHLTKIWSNYIYKKKDYRDNPEKFNEEILNELHFMKIFLAYQVGRDIEGISELKEILEPLIDEIKTPDEFEKFKKFYDAILAYHKFHSESEKSNRRTARR,not soluble
10,MGSDKIHHHHHHMKLSDFIKTEDFKKEKHVPVIEAPEKVKKDEKVQIVVTVGKEIPHPNTTEHHIRWIKVFFQPDGDPYVYEVGRYEFNAHGESVQGPNIGAVYTEPTVTTVVKLNRSGTIIALSYCNIHGLWESSQKITVEE,soluble
11,MFPAQEEADRTVFVGNLEARVREEILYELFLQAGPLTKVTICKDREGKPKSFGFVCFKHPESVSYAIALLNGIRLYGRPINVQYRFGSSRSSEPANQSFESCVKINSHNYRNEEMLVGRSSFPMQYFPINNTSLPQEYFLFQKMQWHVYNPVLQLPYYEMTAPLPNSASVSSSLNHVPDLEAGPSSYKWTHQQPSDSDLYQMTAPLPNSASVSSSLNHVPDLEAGPSSYKWTHQQPSDSDLYQMNKRKRQKQTSDSDSSTDNNRGNECSQKFRKSKKKKRY,soluble
12,MDPLDDLLTQLEGVEEEELKPVNRAPRLLNMEEACENQGSSEKPSDSSSKNRYEDDDSDDEELYVKKRELTEQGALLKRHLEKNSSTSGPKATDAWKTNKKSVLTGLTKPSTDTVTVGIVRFDKFQISIRNPKISATSFGAFTAGMKLEKLSNLKPTSNFKEAWCTIGVIVEKGFKKKSANGNDFLIWKLHDLKDCQTQPVKLLMFGDAIKDHWEIKLGSVIALISAQIADDSTASGAKKTVSATLKVAKSNNIVEIGQSAHFGTCKGIRQQDGQRCSNFVNSSLSEFCVFHVMSAARKLSAKRGVFNAVTCGPNVGGLSFNKKPGTPRPPISSRPGISGSGLATSSGSPMLRDTMRPADSFTLTTPTSGLKKITKEEEKSSLNDLLSQRKNTFAARQMLKLKEKKDEKLAESVEEMIEFLGTTGGEEKPSVHSSFGEFLAADTRREKAATVDLRASSATSGTSASSPGGSKLWTMSLANKKAAPLGHKDAQEHAARLRAIAILKAKRKEAEMEKLTGGGGGVKRKASGTPTAPEPEAKKPRSQKMDEIRAMLARKSTHHKEAEKAEHDMLQRHLTGMEEREKVETFTTTCVEVKNVKVVTCNQCKYTSQFASSECIKKEHKLIKHTADKRFFKCTGCKKRTVCFEMMPVKHCAHCNENKWERVAMKDERKVVLDTENLLLRGEERPFVGS,not soluble
13,MGSDKIHHHHHHMGKLLTPDDLPIVRGRVYHLDLAPEELARRVIVVGDPDRVPVLAEELLALREVDRFHRGFRTITGVTAETGQRVSFVTSGIGAPSTEIVLNELAALNEVDFASMTRRERWQPLTLVRLGTSGGLNPVTPVGTLILTDYVVGLDNTALYYDIPLPDEACALLEEKVGSVLTGTELPGARFAGKIAPYAARSDRGLLASLTAAASTLELNWTRGLTISSAGFFAEQGRGVARVGTTQVNLLDAFERLASPWPGLELQNMEMEAGFFLHFLGGMRYRAAVVCVVINQRSSGVFMADYRRQVLDGARLILRAFKEYGDARAKSGALA,not soluble
14,ADPEKSYAEGPGLDGGECFQPSKFKIHAVDPDGVHRTDGGDGFVVTIEGPAPVDPVMVDNGDGTYDVEFEPKEAGDYVINLTLDGDNVNGFPKTVTVKPA,soluble
15,MGKYFGTDGVRGEANVELTPELAFKLGRFGGYVLSQHETERPKVFVARDTRISGEMLESALIAGLLSVGIEVYKLGVLATPGVSYLVRTEKASAGVMISASHNPALDNGIKFFGNDGFKLADDQELEIEALLDAPEDTLPRPSAEGLGTLVDYPEGLRKYEKFLVTTGTDLSGMTVALDTANGAASVSARDVFLDLNAEIAVIGEKPNGLNINDGVGSTRPEQLQELVKETGADLGLAFDGDSDRLIAVDETGEIVDGDRIMFIIGKYLSEKGLLAHNTIVTTVMSNLGFHKALDKQGINKAITAVGDRYVVEEMRSSGYNLGGEQSGHVIIMDYNTTGDGQLTAIQLAKVMKETGKSLSELAAEVTIYPQKLVNIRVENSMKERAMEVPAIANIIAKMEDEMAGNGRILVRPSGTEPLLRVMAEAPTDAEVDYYVDTIADVVRTEIGCDN,not soluble
16,MDKFIKQLDPNLDYINHEINDGKCYITVASNRKEVTCPFCGQSSSRIHSTYNRIFQDLPIQGNKVFIIIRNRKMFCDNHDCSHTTFAERFDFISYKAKKTRRLEDEIVRLSINCSSVAASKALKENVVDIGKSTVCNLLKKETLVVDKKTVTVVCIDDFAIKKRKSYGTIMIDIFTHQILDMIDSRDYETVCEWLKTYPNLSVISRDGSVIYNNAIANAHPEALQISDRFHLLKNLTSYITEYLKKRLKPQVLIQAVSQETKEIKTIRQADENRKLTLKEKYEKIKQLLLEGKCKTEICRSLNMDIRAYDKLMAMTAEKREKSFQTKKMIIHEERVKQKMERVNEVRELKGIGLSNREISRRTGLNRKTVSRYLDENFNPVHAAYGKKRNGKLTPYIKAIDEYLEKGIMGSYIEEKIREMGYEGSSSTVRDYITDWKKRRKKYYDKSREDGTKTETIKRENILKLLYQPIEKSKNN,soluble
17,MSRKNILQGLMAGTPSPAPAAAERPRATKGAIGAVSRSIADLKARAVIEVDPFLIDAGGLQDRLESDAAEDAELARSIATYGQQVPVLVRPHPTDENRFQIVYGRRRVLALRDLGQPVKALVRDLDDREAVLAQGQENTARRDLSFIEKVNFARQMADAGYDRKAICDALSVDKTLISRMVSVSERVPVALIEAIGAASGIGRDRWLALAELMEKTDDDLDTLISTMSLTAEGQGSDQRFEALFSYLSGQRRREPPAPLRTEPITGHDGRPLGDVSRGAASVVLRLRRSHAKGFEEWLLQNLPDLHRSWQSDRNGK,not soluble
18,MPTVRLADGDLNYSLEGPAGAPVLLLSNSLGTDLGMWDTQIPALTAHFRVLRYDTRGHGASLVTPGPYAIGQLGADVLALLDALELPRVHFCGLSMGGLIGQWLGIHAGERLGRLVLCNTAAKIASDEVWNTRIDTVLKGGEQAMRDLRDASVARWFTAGFAEREPAQVERIVAMLAATSPQGYAANCAAVRDADFREQLGLVQAPTLIVAGSHDAVTTPDNARFMQARIADAQLVEFAAAHLSNVEAGDAFSRRLVDFLL,not soluble
19,MGSDKIHHHHHHLMCCASRSVPRWPDNIFTEFLSPKRALGPEPCRPRMTPFWRAGQLCPSVQDRRVFSCEPPCAVFPRWRTMRRAYLLKQEVLPMKISVIGASRGIGRKVVEEALERGHSVTGMARSATSLGIDHAEFTAIDGDATNATDVTQAIDGADAVILTLGVPKDARVLKSTTLFSDATRTLITAMEEAGIKRLLTVTGFGAGDSKEKLSTPERLTQKAFLGRAYADKDLQEKLIRDSDLDWTIARPGILSDNRKSNAYKVLVEKETWRNGLINRSDVADFLVTAAEDESHIHKTPALQR,not soluble
